For data set [1], the target named is monoacetylated histone H3 peptide …(AcK)APRKQL, acetylated on lysine-14.
Data set [2] concerns the target PCAF-acetylated calf thymus core histones.
Data set [3] deals with T1, 9-amino acid synthetic alpha-tubulin peptide MPSD(AcK)TIGG, acetylated on lysine-40.
T1 chain: MPSDXTIGG

B1: recombinant yeast Hst2p (protein)
chain: MSVSTASTEMSVRKIAAHMKSNPNAKVIFMVGAGISTSCGIPDFRSPGTGLYHNLARLKLPYPEAVFDVDFFQSDPLPFYTLAKELYPGNFRPSKFHYLLKLFQDKDVLKRVYTQNIDTLERQAGVKDDLIIEAHGSFAHCHCIGCGKVYPPQVFKSKLAEHPIKDFVKCDVCGELVKPAIVFFGEDLPDSFSETWLNDSEWLREKITTSGKHPQQPLVIVVGTSLAVYPFASLPEEIPRKVKRVLCNLETVGDFKANKRPTDLIVHQYSDEFAEQLVEELGWQEDFEKILTAQGGMGDNSKEQLLEIVHDLENLSLDQSEHESADKKDKKLQRLNGHDSDEDGASNSSSSQKAAKE
Take B1: in data set [1], the “fold preference for H3 peptide relative to SIRT2 (V/K and Km)” value is listed as “˜200-fold stronger preference for H3 peptide relative to SIRT2”; the “kcat (printed 'km values'), deacetylation of acetylated H3 peptide” value was “The km values (˜0.2 s^-1) were similar between the two enzymes”. Besides, the “apparent V/K for deacetylation of core histones, fold over SIRT2” value in data set [2] is given as “Hst2p exhibited a 7-fold higher V/K value than SIRT2”. In data set [3], the “V/K, deacetylation of tubulin peptide, HPLC” value was found to be 14.9 M⁻¹ s⁻¹ and the “kcat (printed 'kea'), deacetylation of tubulin peptide, HPLC” value was found to be 0.00254 ± 0.0003 s⁻¹.

B2: recombinant human SIRT2 (6xHis-tagged, with factor Xa cleavage site, purified from E. coli) (protein)
chain: MAEPDPSHPLETQAGKVQEAQDSDSDSEGGAAGGEADMDFLRNLFSQTLSLGSQKERLLDELTLEGVARYMQSERCRRVICLVGAGISTSAGIPDFRSPSTGLYDNLEKYHLPYPEAIFEISYFKKHPEPFFALAKELYPGQFKPTICHYFMRLLKDKGLLLRCYTQNIDTLERIAGLEQEDLVEAHGTFYTSHCVSASCRHEYPLSWMKEKIFSEVTPKCEDCQSLVKPDIVFFGESLPARFFSCMQSDFLKVDLLLVMGTSLQVQPFASLISKAPLSTPRLLINKEKAGQSDPFLGMIMGLGGGMDFDSKKAYRDVAWLGECDQGCLALAELLGWKKELEDLVRREHASIDAQSGAGVPNPSTSASPKKSPPPAKDEARTTEREKPQ
In the case of B2, the “kcat (printed 'km values'), deacetylation of acetylated H3 peptide” value in data set [1] was “The km values (˜0.2 s^-1) were similar between the two enzymes”. Besides, in data set [3], the “V/K, deacetylation of tubulin peptide, HPLC” value turned out to be 894 ± 100 M⁻¹ s⁻¹; the “fold preference for tubulin peptide relative to Hst2p (kcat and V/K)” value is “This difference was 60-fold”; the “kcat (printed 'kea'), deacetylation of tubulin peptide, HPLC” value was found to be 0.144 ± 0.005 s⁻¹.
